# Source: the RNAGym collection of RNA variant scans (doi:10.7554/elife.80360)
# B1: HDV Ribozyme (parent)
# chain: GGCCGGCAUGGUCCCAGCCUCCUCGCUGGCGCCGGCUGGGCAACAUUCCGAGGGGACCGUCCCCUCGGUAAUGGCGAAUGGGACCCA
# Variants of: B1
# Assay: self-cleavage, relative activity (ratio to wild type); higher = more cleavage; co-transcriptional
row,Variant,self-cleavage
1,C58U C63U,1.04
2,A56G A83U,0.684
3,A56G A83G,0.831
4,C57G,1.02
5,C57A,1.05
6,C57U,0.993
7,C57A U79G,0.831
8,C58U C62G,0.812
9,U60A C64U,1.13
10,C57U A70U,1.05
11,C58A G76A,1.02
12,A56G G73U,0.249
13,A56G G73C,0.38
14,G59A G81A,0.472
15,G59U G76C,1.08
16,C58G A70C,0.712
17,G55U U72C,0.703
18,G55U G68A,1.03
19,G59C C62G,0.6
20,C58U C85A,1.13
21,C57G G68A,1.18
22,G59C G81C,0.261
23,G59U C75A,0.0314
24,A56G C63U,0.682

row,Variant,self-cleavage
1,A56G C63G,0.59
2,C58G U60G,0.532
3,G59A C85U,0.796
4,G59A C64G,0.831
5,G59A C64U,0.903
6,A56C C63G,0.608
7,G55U C66G,0.901
8,C57U C61U,0.843
9,G59U G73A,0.644
10,C58U C61G,0.967
11,G59C A70G,1.06
12,C58U A78G,0.77
13,C58G G59C,1.03
14,C58G G59U,0.946
15,C58G G59A,1.1
16,C58G A87C,0.919
17,A56C G80U,0.253
18,A56G G80U,0.165
19,G59C U60C,0.937
20,A56U U69G,0.959
21,U60A A87C,1
22,C57A U72C,0.856
23,G55U C58A,0.843
24,C58G C86A,0.727

row,Variant,self-cleavage
1,C58A G81A,0.514
2,G59A U72C,0.607
3,G59U A83G,0.732
4,G59U A83U,0.486
5,G55U A78C,0.18
6,C57U G67U,0.974
7,C57U U79C,0.237
8,A56C C66G,0.99
9,A56C C66U,0.861
10,A56U G67A,1.17
11,G59C C63U,1.11
12,A56G G59U,1.06
13,A56G C75U,0.17
14,G59C A78U,0.155
15,G59C G82U,0.489
16,G59A U79A,0.884
17,G59A U79C,0.518
18,C57U G59U,1.2
19,G55U G67C,1.06
20,A56G G74C,0.125
21,G59C C75A,0.219
22,C58A G67U,0.946
23,C58A G67C,0.886
24,A56C C61U,0.942

row,Variant,self-cleavage
1,G59A G73U,0.267
2,G59A G67C,1.05
3,C58A C63U,1.02
4,C57U G81U,0.353
5,C58U A87C,0.905
6,C58U A87U,0.915
7,C58G U72A,0.594
8,C58A A87U,1
9,C58A A87G,1.11
10,C58A A87C,1.09
11,A56G G67A,1.09
12,C58G C61G,0.88
13,C58G C61U,0.851
14,G59U G67A,1.05
15,G59A G74C,0.198
16,U60A G81U,0.151
17,U60A G81C,0.0811
18,G59A G76A,1.07
19,G55U G74C,0.208
20,G55U G74U,0.707
21,C58G C64U,1.08
22,G55U C61G,1.11
23,C57G A70G,0.856
24,A56C G73U,0.521

row,Variant,self-cleavage
1,A56C G73A,0.658
2,G59U A71C,0.895
3,A56U C57U,0.886
4,A56U C57G,1.08
5,A56U C57A,0.966
6,C57A U65A,1.09
7,A56C A78G,0.706
8,G59C G80C,0.222
9,G59A A77U,0.574
10,G59U U72A,0.665
11,A56U C66A,1.03
12,A56U C66G,0.997
13,C58A C86U,1.1
14,C57G U60A,0.987
15,C57G U60C,1.07
16,A56U C63A,0.969
17,A56C C86U,1.03
18,G59A C62U,1.22
19,U60A G80A,0.3
20,G59C C66U,0.81
21,G59C G68C,1.11
22,U60A U65A,0.831
23,C57G G67A,0.909
24,A56U G59A,0.926

row,Variant,self-cleavage
1,C58G C75G,0.415
2,C58U G73U,0.343
3,C58U G73C,0.608
4,C58U G74U,0.51
5,C58U G74C,0.227
6,C58U G80C,0.203
7,C58U G80A,0.372
8,U60A A70C,0.808
9,U60A A70G,0.77
10,C57A C66G,0.985
11,C57A C62A,0.997
12,A56U C58G,1.08
13,A56U C58A,1.16
14,C58A A83U,0.554
15,G59A C63U,1.13
16,G59A C63G,0.805
17,C58G G73U,0.217
18,C57A G67A,0.926
19,C57A C58G,1.14
20,C57A C58U,1.05
21,U60C A70G,1.15
22,C58G G74A,0.499
23,G59A A87U,0.974
24,A56C C64G,0.831

row,Variant,self-cleavage
1,G55U G81A,0.287
2,A56G U60G,0.831
3,A56C U72A,0.95
4,A56G C84G,0.598
5,A56C G82C,0.306
6,G59C G73U,0.379
7,C57A G76U,1.16
8,C57U G82C,0.208
9,C57U G82A,0.269
10,G59A C84G,0.597
11,C57G C85U,0.849
12,U60A C86U,0.831
13,C57G G73U,0.464
14,C58A C75G,0.116
15,C58A U60A,1.09
16,C57G G80U,0.25
17,G55U C75A,0.153
18,C58G A77C,0.361
19,C58G A77U,0.388
20,C58A G59U,0.89
21,G59A U69A,1.08
22,G59A U69G,1
23,C58U G82U,0.34
